In patent US20200262873A1 one finds Antibody dissociation rate (%) data, which are given here for 15 molecules.

Positions count from the first letter of the chain named.

This assay concerns the target human IgG (IgG Sepharose 6 Fast Flow, GE Healthcare Biosciences Corp.) (human). As to the kind of experiment: IgG Sepharose 6 Fast Flow column; bound at neutral pH, eluted at pH 3.0 then pH 2.5; peak area A/(A+B).

B1: Recombinant type immunoglobulin κ light chain binding protein KBP0 (designed binder)
chain: KETPETPEEPKEEVTIKVNLIFADGKTQTATFKGTFEEATAEAYRYADLLAKVNGEYTADLEDGGYTINIKFAGKKETPETPEEPKEEVTIKVNLIFADGKTQTATFKGTFEEATAEAYRYADLLAKVNGEYTADLEDGGYTINIKFAGKKETPETPEEPKEEVTIKVNLIFADGKTQTATFKGTFEEATAEAYRYADLLAKVNGEYTADLEDGGYTINIKFAGKKETPETPEEPKEEVTIKVNLIFADGKTQTATFKGTFEEATAEAYRYADLLAKVNGEYTADLEDGGYTINIKFAGK
In turn, B1 returned an Antibody dissociation rate (%) at pH 3.0 of 50%.

B2: Recombinant immunoglobulin κ light chain binding protein KBP9 (designed binder)
chain: B1 chain with E42K, E117K, E192K, E267K
B2 came in with an Antibody dissociation rate (%) at pH 3.0 of 95%.

B3: Recombinant immunoglobulin κ light chain binding protein KBP1 (designed binder)
chain: B1 chain with I16H, I91H, I166H, I241H
Turning to B3, the Antibody dissociation rate (%) at pH 3.0 worked out at 95%.

B4: Recombinant immunoglobulin κ light chain binding protein KBP11 (designed binder)
chain: B1 chain with I70H, I145H, I220H, I295H
The molecule B4 came in with an Antibody dissociation rate (%) at pH 3.0 of 99%.

B5: Recombinant immunoglobulin κ light chain binding protein KBP4 (designed binder)
chain: B1 chain with Q28H, Q103H, Q178H, Q253H
Turning to B5, the Antibody dissociation rate (%) at pH 3.0 turned out to be 95%.

B6: Recombinant immunoglobulin κ light chain binding protein KBP8 (designed binder)
chain: B1 chain with E38K, E113K, E188K, E263K
Molecule B6 returned an Antibody dissociation rate (%) at pH 3.0 of 80%.

B7: Recombinant immunoglobulin κ light chain binding protein KBP7 (designed binder)
chain: B1 chain with G34H, G109H, G184H, G259H
Molecule B7 yielded an Antibody dissociation rate (%) at pH 3.0 of 97%.

B8: Recombinant immunoglobulin κ light chain binding protein KBP10 (designed binder)
chain: B1 chain with Y57H, Y132H, Y207H, Y282H
Take B8: the Antibody dissociation rate (%) at pH 3.0 came out at 97%.

B9: Recombinant immunoglobulin κ light chain binding protein KBP5 (designed binder)
chain: B1 chain with A30H, A105H, A180H, A255H
B9 yielded an Antibody dissociation rate (%) at pH 3.0 of 92%.

B10: Recombinant immunoglobulin κ light chain binding protein KBP2 (designed binder)
chain: B1 chain with V18H, V93H, V168H, V243H
As for B10, the Antibody dissociation rate (%) at pH 3.0 came out at 98%.

B11: Recombinant immunoglobulin κ light chain binding protein KBP6 (designed binder)
chain: B1 chain with F32H, F107H, F182H, F257H
B11: the Antibody dissociation rate (%) at pH 3.0 is 92%.

B12: Recombinant immunoglobulin κ light chain binding protein KBP3 (designed binder)
chain: B1 chain with L20H, L95H, L170H, L245H
B12: the Antibody dissociation rate (%) at pH 3.0 was 95%.

B13: Recombinant immunoglobulin κ light chain binding protein KBP12 (designed binder)
chain: KETPETPEEPKEEVTIKVNLIFADGRTQTATFKHRFEEATAKAYRYADLLAKVQGEYTADLEDGGYTINIKFAGKKETPETPEEPKEEVTIKVNLIFADGRTQTATFKHRFEEATAKAYRYADLLAKVQGEYTADLEDGGYTINIKFAGKKETPETPEEPKEEVTIKVNLIFADGRTQTATFKHRFEEATAKAYRYADLLAKVQGEYTADLEDGGYTINIKFAGKKETPETPEEPKEEVTIKVNLIFADGRTQTATFKHRFEEATAKAYRYADLLAKVQGEYTADLEDGGYTINIKFAGK
Consider B13, for which the Antibody dissociation rate (%) at pH 3.0 was 100%.

B14: Recombinant immunoglobulin κ light chain binding protein KBP13 (designed binder)
chain: B13 chain with H34G, Y57H, H109G, Y132H, H184G, Y207H, H259G, Y282H
With B14, the Antibody dissociation rate (%) at pH 3.0 was 100%.

B15: Recombinant immunoglobulin κ light chain binding protein KBP14 (designed binder)
chain: B13 chain with F32H, H34G, F107H, H109G, F182H, H184G, F257H, H259G
The molecule B15 came in with an Antibody dissociation rate (%) at pH 3.0 of 100%.
